# According to US20240327505A1 (published 2024):
# Positions count from the first letter of the chain named.
# B1: AB-009325 (antibody, V domains shown)
# VH: QVQLVESGGGVVQPGRSLRLSCAASGFTFNNYGMHWVRQAPGKGLEWVALISYEGSLKYYGDSVRGRFTVSRDNSRNTLYLQMNSLRVDDTAVYYCAKAGGIFAIHYYGMNVWGQGTTVTVSS
# VL: QSVLTQPPSVSAAPGQKVTISCSGSSSNIGKNYVSWYRQFPGTAPKLLIYDNNKRPSGIPDRFSGSKSDTSATLGITGLQTGDEADYYCVTWDSSLSAGVFGGGTKLTVL
# B2: AB-009358 (antibody, V domains shown)
# VH: QVHLVQSGAEVKKPGASVKISCKASGYTFTSYYVHWVRQAPGQGLEWMGIIKPSGAGTIYAQKFQGRVTMTRDTSTSTVYMELSSLISEDTAVYYCARGGGVTDRDYWGQGTLVTVSS
# VL: QSALTQEASVSATVGQKVTLSCTGNTNNIGGYAVGWHQQISHGAPKTVMFGNSLPSGIPDRFSGSKSGTTASLIISGLQPEDEADYYCSTWDSSLGAVLFGGGTKLTVL
# B3: AB-009610 (antibody, V domains shown)
# VH: QVQLVQSGAEVKKPGSSVKVSCKASGGTFSNYAISWVRQAPGQGLEWMGRIIPILGIANYAQKFQGRVTITADKSTSTAYMELSSLRSEDTAVYYCATTPYYYDSSGYYLDYWGQGTLVTVSS
# VL: not shown
# B4: AB-010020 (antibody, V domains shown)
# VH: QMQLVQSGPEVKKPGTSVKVSCKASGFTFTSSAVQWVRQARGQRLEWIGWIVVGSGNTNYAQKFQERVTITRDMSTSTAYMELSSLRSEDTAVYYCAAPACSSTSCYDGFDIWGQGTMVTVSS
# VL: not shown
# B5: AB-010021 (antibody, V domains shown)
# VH: B4 VH with P99V, A100Y, S103G, T104G, Y107L, G109A
# VL: not shown
# B6: AB-009271 (antibody, V domains shown)
# VH: EVQLVESGGGLIQPGGSLRLSCAASGFIVSSNYMSWVRQAPGKGLEWVSVIYSGGSTYYADSVKGRFTISRDNSKNTLYLQMNSLRAEDTAVYYCARDYGDFYFDYWGQGTLVTVSS
# VL: EIVMTQSPATLSVSPGERATLSCRASQSVSSNLAWYQQKPGQAPRLLIYGASTRATGIPARFSGSGSGTEFTLTISSLQSEDFAVYYCQQYYNWPRTFGQGTKVEIK
# B7: AB-009613 (antibody, V domains shown)
# VH: B6 VH with I28T
# VL: not shown
# B8: AB-009629 (antibody, V domains shown)
# VH: QVQLQQWGAGLLKPSETLSLTCAVYGGSFSGYYWSWIRQPPGKGLEWIGEINHSGSTNYNPSLKSRVTISVDTSKNQFSLKLSSVTAADTAVYFCARGTGIAVAGVLVNFYYCYYMDVWGKGTTVTVSS
# VL: SSELTQDPAVSVALGQTVRITCQGDSLRSYYASWYQQKPGQAPVLVIYGKNNRPSGIPDRFSGSSSGNTASLTITGAQAEDEADYYCNSRDSSGNHLVFGGGTKLTVL
# B9: AB-009190 (antibody, V domains shown)
# VH: QVQLVESGGGVVQPGRSLRLSCAASGFTFSSYAMHWVRQAPGKGLEWVAVISYDGSNKYYADSVKGRFTISRDNSKNTLYLQMNSLRAEDTAVYYCARLNGDAYYYYGMDVWGQGTTVTVSS
# VL: not shown
# Legend:
# [1] = molecular target: SARS-CoV-2 spike S2 protein (SARS-CoV-2, UniProt P0DTC2 686-1213)
# [2] = molecular target: SARS-CoV-2 Envelope (E) protein (SARS-CoV-2, UniProt P0DTC4 1-75); experiment: ELISA, Envelope
# [3] = molecular target: SARS-CoV-2 Spike (S) trimer (SARS-CoV-2, UniProt P0DTC2 16-1213); experiment: ELISA on coated S trimer, 1:50
# [4] = molecular target: SARS-CoV-2 spike S2 protein (SARS-CoV-2, UniProt P0DTC2 686-1213); remark: listed apart in the source
# [5] = molecular target: T1, SARS-CoV-2 Spike (S) trimer (SARS-CoV-2, UniProt P0DTC2 16-1213); experiment: ELISA, S trimer coated, antibody at 1:50 dilution
# [6] = molecular target: T1, SARS-CoV-2 Spike (S) trimer
# [7] = molecular target: SARS-CoV-2 Spike (S) trimer (SARS-CoV-2, UniProt P0DTC2 16-1213); experiment: ELISA, S trimer coated, antibody at 1:50 dilution; remark: listed apart in the source
# [8] = molecular target: SARS-CoV-2 Nucleocapsid (N) protein (SARS-CoV-2, UniProt P0DTC9 1-419)
binder,measurement,setting,value
B1,Kd,[1],0.0467 nM
same,koff,[1],2.77e-07 s⁻¹
same,kon,[1],5930 M⁻¹ s⁻¹
same,OD 450 nm,[2],0.32 OD
same,OD 450 nm,[3],1.39 OD
B2,Kd,[4],478 nM
same,koff,[4],0.00176 s⁻¹
same,kon,[4],3690 M⁻¹ s⁻¹
B3,Optical Density (OD; 450 nm),[5],2.02 OD 450 nm
B4,EC50,[6],0.15 nM
B5,EC50,[6],0.23 nM
B6,Optical Density (OD; 450 nm),[5],2.94 OD 450 nm
B7,Optical Density (OD; 450 nm),[5],2.47 OD 450 nm
B8,Optical Density (OD; 450 nm),[7],0.114 OD 450 nm
B9,Kd,[8],54.1 nM
same,koff,[8],0.000947 s⁻¹
same,kon,[8],17500 M⁻¹ s⁻¹
same,OD 450 nm,[2],0.469 OD
